Assays:
[1] = molecular target: GFP-FcγRIIIa, extracellular region of human FcγRIIIa (residues 19-193, V158 allotype) (human) (UniProt P08637); assay: SPR
[2] = molecular target: GFP-FcγRIIIa, extracellular region of human FcγRIIIa (residues 19-193, V158 allotype) (human) (UniProt P08637); assay: ITC
[3] = molecular target: Human IgG1 Fc wt (residues 216-447) with G2F N-glycan (human); assay: pull-down

Substance | Kd [1] [nM] | Kd [2] [nM] | Kd [3] [nM]
Human IgG1 Fc F241I/F243I with a single GlcNAc residue (domain or fragment) | 6300 | – | –
Human IgG1 Fc F241I/F243I with G2F N-glycan (domain or fragment) | 10000 | – | –
Human IgG1 Fc F241I with G2F N-glycan (domain or fragment) | 2100 | – | –
Human IgG1 Fc F241S/F243S with G2F N-glycan (domain or fragment) | 29000 | – | –
GFP-FcγRIIIa, extracellular region of human FcγRIIIa (residues 19-193, V158 allotype) (from UniProt P08637 19-193) (receptor) | – | – | 500
Human IgG1 Fc F241S/F243S with a single GlcNAc residue (domain or fragment) | 3500 | – | –
Human IgG1 Fc wt with a single GlcNAc residue (GlcNAc-Fc) (domain or fragment) | 2400 | – | –

Further lines, results first:

Kd [1] [nM] | Kd [2] [nM] | Kd [3] [nM] | Substance
340 | – | – | Human IgG1 Fc K246F with G2F N-glycan (domain or fragment)
550 | 1200 | – | Human IgG1 Fc wt (residues 216-447) with G2F N-glycan (domain or fragment)
1900 | – | – | Human IgG1 Fc F243S with G2F N-glycan (domain or fragment)
1500 | – | – | Human IgG1 Fc F241S with G2F N-glycan (domain or fragment)

Source: article PMC4192013
